Consider 53 sequences from the supplement of paper PMC10567573.

± gives the standard deviation.

A short description of this series: protein stability index of a GFP-peptide fusion (GPS, HEK-293T) (PSI 1-6); higher = more stable.
Where [1] appears, read: treatment: DMSO, c terminus: a fixed tail appended.
[2] abbreviates: treatment: MLN4924 1 uM, 8 h, c terminus: a fixed tail appended.
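Also: 24-mer peptide tiles fused after GFP, lentivirally expressed, FACS-sorted into six equal bins by GFP/DsRed ratio, decoded by Illumina sequencing, PSI is the read-weighted mean bin number.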

For the sequence NHLQTHDPNKMAFGCEECGKKYNT [PLAGL1], the protein stability index runs as follows: under setting [1], 4.14 ± 0.16; under setting [2], 4.77 ± 0.27.
In the same order, the values of QFAAEYTSKNSSTQDPSQPNSTKN [LCOR] are 5.22 ± 0.15 and 5.36 ± 0.08.
On the same counts, the results for QKALYRRLATVHMSRMINKYKRRR [CLPTM1] are 3.7 ± 0.22 and 3.53 ± 0.16.
For the sequence AFHPLFSLTSGACRLDYRRPENRS [TCF25], the protein stability index is, setting by setting: under setting [1], 2.29 ± 0.41; under setting [2], 2.24 ± 0.24.
Consider PLLLKEILKHTPKEHPDVQLLEDA [NET1], for which the protein stability index runs as follows: under setting [1], 3.82 ± 0.41; under setting [2], 4.06 ± 0.21.
Turning to TEIEEELKSLDKEISEAFTSTGFD [BCL2L13], the protein stability index was 5.16 ± 0.27 under setting [1] and 5.26 ± 0.34 under setting [2].
On the same counts, the results for LFVLELEWVLSTGQDKQFAWHCSE [WDFY2] are 2.99 ± 0.34 and 2.77 ± 0.72.
In the same order, the values of YVRPERLSPISHGNTIALFFRSLL [TCF25] are 2.59 ± 0.4 and 2.71 ± 0.42.
As for LSATIGSILRELDTSMDGTEPPQN [SERTAD3], the protein stability index was 4.1 ± 0.15 under setting [1] and 4.26 ± 0.33 under setting [2].
On the same counts, the results for FGGSFMAPSPSPVTPAQNNLLQPN [SNAP91] are 2.64 ± 0.59 and 3.09 ± 0.4.
As to SKPKNSVWKRLKSPFRKKKDSVT [RIT1], the protein stability index runs as follows: (treatment: DMSO, c terminus: native) 3.55 ± 0.49; (treatment: MLN4924 1 uM, 8 h, c terminus: native) 3 ± 0.43.
Consider VSTMRCKTRQKSEKQMEEKRRANQ [PPEF2], for which the protein stability index runs as follows: under setting [1], 4.41 ± 0.7; under setting [2], 4.79 ± 0.24.
As for HRVKLTNSTLDPHGHLILHSMHKY [TBX6], the protein stability index worked out at 2.37 ± 0.35 under setting [1] and 2.71 ± 0.2 under setting [2].
Turning to MPPGLHHQRKYTQSFCGENIMMPM [ZNF207], the protein stability index runs as follows: under setting [1], 2.29 ± 0.6; under setting [2], 2.27 ± 0.34.
Turning to PRRESLLRGLCRPLRPLLGFRESD [C6orf223], the protein stability index reads like this: under setting [1], 2.36 ± 0.46; under setting [2], 2.13 ± 0.43.
Turning to WQLFLAHNIPLETIIPILQHLKYK [INTS3], the protein stability index by setting is: under setting [1], 2.83 ± 0.44; under setting [2], 2.63 ± 0.59.
Take KEGGQAGSGQRVPALEEAPDSHQK [ELOA2]: the protein stability index by setting is: under setting [1], 5.32 ± 0.21; under setting [2], 5.47 ± 0.28.
On the same counts, the results for DLFVENMPGFPDNIRPSSSGGYWV [APMAP] are 2.32 ± 0.26 and 2.49 ± 0.34.
For APDGSYFAWSQGHRTVKLVPWSQC [WSB1], the protein stability index under setting [1] was 2.57 ± 0.47 and the protein stability index under setting [2] stood at 2.8 ± 0.42.
In the same order, the values of VAERKYTQEQARKEFQQVFIPECN [SMOC2] are 4.38 ± 0.19 and 4.41 ± 0.23.
With TGKGPSTHTQIDQQPPRLLIVHIA [M1AP], the protein stability index by setting is: under setting [1], 2.54 ± 0.34; under setting [2], 2.44 ± 0.6.
EAPKYHIPYWVAYYLALLLSLLVM [NSDHL]: the protein stability index by setting is: under setting [1], 2.63 ± 0.36; under setting [2], 2.53 ± 0.69.
In the same order, the values of RNGHAKVVRLLLEHYRVQTQQTGT [FEM1B] are 2.32 ± 0.21 and 2.3 ± 0.28.
On the same counts, the results for ATLCLEFLLQNDANPSIRDKEGYN [ANKRD44] are 2.61 ± 0.26 and 2.73 ± 0.074.
Regarding DIHVGLRGVPLLEWETEVEMDKLR [CLCN6], the protein stability index is, setting by setting: under setting [1], 3.98 ± 0.23; under setting [2], 3.96 ± 0.41.
Regarding RDIRCSEDEKLCDPNTRPVGEKNC [ADAMTSL2], the protein stability index is, setting by setting: under setting [1], 5.18 ± 0.28; under setting [2], 5.35 ± 0.22.
Take SLKGSLSVEEQLSLISGCPNIQEA [CRYL1]: the protein stability index runs as follows: under setting [1], 4.18 ± 0.3; under setting [2], 4.12 ± 0.36.
On the same counts, the results for DVSLPRGAFPPRGPRPVQSVVPEM [CDK4] are 4.01 ± 0.33 and 3.94 ± 0.33.
In the same order, the values of KPYGCVECGKAFSRSSILVQHQRV [ZNF24] are 2.07 ± 0.17 and 2.11 ± 0.2.
As for NPQSPPQDSSVTSKRNIKKGAVPR [HDAC6], the protein stability index runs as follows: under setting [1], 4.99 ± 0.43; under setting [2], 5.14 ± 0.38.
As for FTLGTNAIIISTIVLDRALHIPMY [OR10K2], the protein stability index reads like this: under setting [1], 2.89 ± 0.82; under setting [2], 2.87 ± 0.78.
On the same counts, the results for TEPLTHWYQVRCLFQSPLFAKAGD [CARM1] are 2.11 ± 0.36 and 2.15 ± 0.61.
On the same counts, the results for EFYHDEFKRWIYLNDQNLCIPASS [GAN] are 2.75 ± 0.28 and 2.74 ± 0.13.
In the same order, the values of SSIVWRFVEDSFDPNINPTIGASF [RAB22A] are 2.31 ± 0.57 and 1.71 ± 0.47.
As for YLNGASVLPHKSIGESVPEPRIIM [GMPPB], the protein stability index worked out at 2.79 ± 0.35 under setting [1] and 2.84 ± 0.34 under setting [2].
Consider PQKLKEVISLEKLNVGNERYVFEA [GAN], for which the protein stability index turned out to be 2.96 ± 0.21 under setting [1] and 2.92 ± 0.41 under setting [2].
LPRKRQSLRSSSSKLAQLTLEQIL [INTS3]: the protein stability index by setting is: under setting [1], 2.34 ± 0.19; under setting [2], 2.44 ± 0.12.
On the same counts, the results for GTAFDAETDSEMNSQESRSDLEDM [SMG5] are 5.63 ± 0.24 and 5.5 ± 0.49.
As for NKRLAKYRMRNVHPKPKLVRVLES [CLCN6], the protein stability index was determined as 3.1 ± 0.33 under setting [1] and 3 ± 0.29 under setting [2].
In the same order, the values of NILIYETPRGPDPALLEATGGAAG [KCTD13] are 3.88 ± 0.19 and 3.84 ± 0.45.
As for CTEKFKTSRDRKDHMVRMHLYPAD [ZNF511], the protein stability index is, setting by setting: under setting [1], 3.49 ± 0.38; under setting [2], 3.48 ± 0.25.
On the same counts, the results for EEPQWVPDKECRRCMQCDAKFDFL [ZFYVE21] are 2.85 ± 0.45 and 2.95 ± 0.39.
On the same counts, the results for KHRIRRVLIVDWDVHHGQGTQFTF [HDAC6] are 3.35 ± 0.42 and 3.14 ± 0.83.
KELRKDYQGPGTRRLQEVLGVQTG [DYRK1B]: the protein stability index was determined as 4.07 ± 0.16 under setting [1] and 4.42 ± 0.17 under setting [2].
On the same counts, the results for RTSLSSGATVRSFSINSRLASSLG [CDC14A] are 2.76 ± 0.34 and 2.99 ± 0.48.
For the sequence LLKCVRESDPSDPNKDMVVQLIDD [SRPK2], the protein stability index is 4.6 ± 0.41 under setting [1] and 4.57 ± 0.079 under setting [2].
Consider QEAMFNMATLNRTAAGLMHTFNAH [SEPHS2], for which the protein stability index runs as follows: under setting [1], 2.44 ± 0.12; under setting [2], 2.54 ± 0.18.
On the same counts, the results for PASYTAPIMSGQGLAGFFASVAMI [SLC29A1] are 2.59 ± 0.58 and 2.44 ± 0.48.
DLGGSIYANLALSGLIEIQSYPLC [SLC22A15] had a protein stability index under setting [1] of 3.02 ± 0.72 and a protein stability index under setting [2] of 2.63 ± 0.76.
With KSVMLQIAATELEKEESRREAEKQ [TNNI2], the protein stability index reads like this: under setting [1], 5.07 ± 0.092; under setting [2], 5.25 ± 0.26.
Consider QLQLKIIEIEDEAEKWQKEKDRIK [TRIM29], for which the protein stability index worked out at 3.35 ± 0.24 under setting [1] and 3.6 ± 0.36 under setting [2].
Consider TRKREDAEHNLVLFRKDVDDATLS [PRPH], for which the protein stability index runs as follows: under setting [1], 4.77 ± 0.18; under setting [2], 4.73 ± 0.097.
On the same counts, the results for LGNGNDKKEMNKSDLNTNNLLFKP [KMT2E] are 4.65 ± 0.25 and 4.34 ± 0.32.
